Experimental data reported in publication PMC8549523, “Human AdV-20-42-42, a Promising Novel Adenoviral Vector for Gene Therapy and Vaccine Product Development” (Journal of Virology, 2021).

Target: hexon protein of HAdV-20-42-42 (human adenovirus HAdV-20-42-42 (strain …))
Assay: SPR; affinity and interaction half-life told as data not shown; CD46 immobilised, hexon as analyte
Conditions: both partners purified

B1: CD46 (receptor)
chain: CEEPPTFEAMELIGKPKPYYEIGERVDYKCKKGYFYIPPLATHTICDRNHTWLPVSDDACYRETCPYIRDPLNGQAVPANGTYEFGYQMHFICNEGYYLIGEEILYCELKGSVAIWSGKPPICEKVLCTPPPKIKNGKHTFSEVEVFEYLDAVTYSCDPAPGPDPFSLIGESTIYCGDNSVWSRAAPECKVVKCRFPVVENGKQISGFGKKFYYKATVMFECDKGFYLDGSDTIVCDSNSTWDPPVPKCLKVLPPSSTKPPALSHSVSTSSTTKSPASSASGPRPTYKPPVSNYPGYPKPEEGILDSLD
Q: How did the Kd turn out when B1 was run?
A: 13.5 µM
